US20240035036A1 (UNIVERSITE DE GENEVE, published 2024)

T1: FljK flagellin protein from Caulobacter crescentus
T1 chain: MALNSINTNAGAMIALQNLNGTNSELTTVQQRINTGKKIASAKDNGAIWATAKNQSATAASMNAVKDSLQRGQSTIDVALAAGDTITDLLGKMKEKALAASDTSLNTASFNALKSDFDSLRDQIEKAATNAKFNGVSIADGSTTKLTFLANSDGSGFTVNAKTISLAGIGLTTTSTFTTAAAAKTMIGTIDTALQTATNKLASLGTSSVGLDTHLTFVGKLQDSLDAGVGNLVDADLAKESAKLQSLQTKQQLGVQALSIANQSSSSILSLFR

T2: Flagellin Modification Protein (FlmG) from Caulobacter crescentus (Caulobacter crescentus, UniProt P21296 1-596)
T2 construct: Natural full-length glycosyltransferase, expressed in cells (C. crescentus, S. fredii NGR234, E. coli); It has an N-terminal TPR domain and a C-terminal GT-B-like glycosyltransferase domain; also called FlbA; CC_1457
T2 sequence: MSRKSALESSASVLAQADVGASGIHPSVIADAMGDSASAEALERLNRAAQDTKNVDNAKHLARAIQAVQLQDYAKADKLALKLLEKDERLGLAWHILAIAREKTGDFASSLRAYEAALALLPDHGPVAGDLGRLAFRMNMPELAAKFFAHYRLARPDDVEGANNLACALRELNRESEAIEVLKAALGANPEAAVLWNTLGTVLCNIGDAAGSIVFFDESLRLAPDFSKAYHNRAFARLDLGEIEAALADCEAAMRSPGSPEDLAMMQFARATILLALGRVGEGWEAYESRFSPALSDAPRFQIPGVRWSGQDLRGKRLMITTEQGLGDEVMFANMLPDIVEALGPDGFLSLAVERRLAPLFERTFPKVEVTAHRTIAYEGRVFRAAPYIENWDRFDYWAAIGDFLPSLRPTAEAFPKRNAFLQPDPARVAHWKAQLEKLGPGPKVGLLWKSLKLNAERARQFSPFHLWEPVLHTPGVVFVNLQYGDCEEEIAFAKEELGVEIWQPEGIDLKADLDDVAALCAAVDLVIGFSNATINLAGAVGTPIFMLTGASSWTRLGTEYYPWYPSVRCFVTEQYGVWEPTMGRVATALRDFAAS


How the values were obtained:
[1] = biological target: T1, FljK flagellin protein from Caulobacter …
[2] = biological target: T2, Flagellin Modification Protein (FlmG) …; assay: summary of example 1 (BACTH and domain analysis)

Row | Binder | FljK glycosylation (migration on anti-FljK immunoblot) in E. coli co-expressing FljK, FlmG and the synthetic flm operon [1] | flagellin modification (SDS-PAGE mobility shift of FljK by immunoblot) on co-expression in S. fredii NGR234 [1] | binding result [2]
1 | Flagellin Modification Protein (FlmG) from Caulobacter crescentus (protein) MSRKSALESSASVLAQADVGASGIHPSVIADAMGDSASAEALERLNRAAQDTKNVDNAKHLARAIQAVQLQDYAKADKLALKLLEKDERLGLAWHILAIAREKTGDFASSLRAYEAALALLPDHGPVAGDLGRLAFRMNMPELAAKFFAHYRLARPDDVEGANNLACALRELNRESEAIEVLKAALGANPEAAVLWNTLGTVLCNIGDAAGSIVFFDESLRLAPDFSKAYHNRAFARLDLGEIEAALADCEAAMRSPGSPEDLAMMQFARATILLALGRVGEGWEAYESRFSPALSDAPRFQIPGVRWSGQDLRGKRLMITTEQGLGDEVMFANMLPDIVEALGPDGFLSLAVERRLAPLFERTFPKVEVTAHRTIAYEGRVFRAAPYIENWDRFDYWAAIGDFLPSLRPTAEAFPKRNAFLQPDPARVAHWKAQLEKLGPGPKVGLLWKSLKLNAERARQFSPFHLWEPVLHTPGVVFVNLQYGDCEEEIAFAKEELGVEIWQPEGIDLKADLDDVAALCAAVDLVIGFSNATINLAGAVGTPIFMLTGASSWTRLGTEYYPWYPSVRCFVTEQYGVWEPTMGRVATALRDFAAS | in the presence of pUCITD-flm FljK migration is shifted towards higher molecular weight, as in Caulobacter crescentus wild-type (WT) cells | upon co-expression of FlmG, FljK shifted to a species with higher molecular mass | –
2 | FljK flagellin protein from Caulobacter crescentus (other, In the glycosylation experiments it was expressed unfused in cells; also called CC_1461) MALNSINTNAGAMIALQNLNGTNSELTTVQQRINTGKKIASAKDNGAIWATAKNQSATAASMNAVKDSLQRGQSTIDVALAAGDTITDLLGKMKEKALAASDTSLNTASFNALKSDFDSLRDQIEKAATNAKFNGVSIADGSTTKLTFLANSDGSGFTVNAKTISLAGIGLTTTSTFTTAAAAKTMIGTIDTALQTATNKLASLGTSSVGLDTHLTFVGKLQDSLDAGVGNLVDADLAKESAKLQSLQTKQQLGVQALSIANQSSSSILSLFR | – | – | binds
